Measured values published in PMC3735830 (Nature structural & molecular biology, 2013).
Each block holds one binder with its values, some of them ahead of it.

Assays:
Assay in all cases: co-IP
[1] = biological target: MCM2-7 (S. cerevisiae, UniProt P29469;P24279;P30665;P29496;P53091;P38132)
[2] = biological target: MCM2-7-ΔC3 (S. cerevisiae, UniProt P29469;P24279;P30665;P29496;P53091;P38132)
[3] = biological target: Mcm3 (S. cerevisiae, UniProt P24279 1-971)
[4] = biological target: Origin Recognition Complex (ORC) (S. cerevisiae, UniProt P54784;P32833;P54790;P54791;P50874;P38826)
[5] = biological target: T1, Mcm4 (S. cerevisiae, UniProt P30665 1-933)
T1 sequence: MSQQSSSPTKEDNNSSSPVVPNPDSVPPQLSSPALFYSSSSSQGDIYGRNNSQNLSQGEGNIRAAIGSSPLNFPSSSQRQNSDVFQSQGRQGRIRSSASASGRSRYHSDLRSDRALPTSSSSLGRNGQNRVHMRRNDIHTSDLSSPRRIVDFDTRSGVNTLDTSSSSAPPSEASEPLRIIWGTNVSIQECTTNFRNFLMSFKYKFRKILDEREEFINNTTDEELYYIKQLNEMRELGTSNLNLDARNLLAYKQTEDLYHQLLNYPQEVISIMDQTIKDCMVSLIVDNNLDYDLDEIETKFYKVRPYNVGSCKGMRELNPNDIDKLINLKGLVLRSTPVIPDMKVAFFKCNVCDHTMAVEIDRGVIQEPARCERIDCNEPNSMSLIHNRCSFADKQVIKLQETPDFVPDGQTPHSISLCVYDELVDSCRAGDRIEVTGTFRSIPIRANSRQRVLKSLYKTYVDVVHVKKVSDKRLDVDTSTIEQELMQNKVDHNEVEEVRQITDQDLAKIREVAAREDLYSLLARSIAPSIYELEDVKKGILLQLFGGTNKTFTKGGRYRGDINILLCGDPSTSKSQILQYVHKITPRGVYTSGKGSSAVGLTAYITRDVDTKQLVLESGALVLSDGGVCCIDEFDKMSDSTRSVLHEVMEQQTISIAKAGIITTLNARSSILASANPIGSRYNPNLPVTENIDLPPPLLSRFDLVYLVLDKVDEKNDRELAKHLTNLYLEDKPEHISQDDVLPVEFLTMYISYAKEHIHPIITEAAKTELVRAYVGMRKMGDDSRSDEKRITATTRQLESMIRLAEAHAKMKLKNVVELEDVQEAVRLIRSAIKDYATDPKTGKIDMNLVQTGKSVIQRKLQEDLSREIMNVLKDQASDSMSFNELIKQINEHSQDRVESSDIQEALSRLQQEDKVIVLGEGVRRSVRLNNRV

MCM2-7-ΔC3, sequence (P24279 1-739, stated change not applied, chain 2 of 4): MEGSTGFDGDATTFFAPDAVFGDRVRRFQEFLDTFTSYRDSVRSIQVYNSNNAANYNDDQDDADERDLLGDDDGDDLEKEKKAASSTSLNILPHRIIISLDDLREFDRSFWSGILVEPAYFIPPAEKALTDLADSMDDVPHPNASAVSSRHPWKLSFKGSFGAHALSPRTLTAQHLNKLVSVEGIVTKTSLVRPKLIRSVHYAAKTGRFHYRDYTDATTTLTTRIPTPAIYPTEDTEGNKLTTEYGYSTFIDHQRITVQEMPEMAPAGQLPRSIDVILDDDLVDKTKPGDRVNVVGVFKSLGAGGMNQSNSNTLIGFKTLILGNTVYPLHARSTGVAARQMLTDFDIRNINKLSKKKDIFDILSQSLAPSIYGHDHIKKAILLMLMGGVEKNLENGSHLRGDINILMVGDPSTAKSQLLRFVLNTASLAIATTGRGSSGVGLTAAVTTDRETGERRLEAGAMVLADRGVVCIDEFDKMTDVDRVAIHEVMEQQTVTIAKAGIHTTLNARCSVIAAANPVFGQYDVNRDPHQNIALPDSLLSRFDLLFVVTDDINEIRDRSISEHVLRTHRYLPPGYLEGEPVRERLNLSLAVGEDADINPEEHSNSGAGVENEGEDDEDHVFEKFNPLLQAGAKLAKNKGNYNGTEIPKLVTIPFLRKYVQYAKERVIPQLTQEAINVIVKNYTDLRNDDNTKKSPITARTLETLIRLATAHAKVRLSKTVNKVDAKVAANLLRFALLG
MCM2-7-ΔC3, sequence (P29496 whole entry, stated change not applied, chain 4 of 4): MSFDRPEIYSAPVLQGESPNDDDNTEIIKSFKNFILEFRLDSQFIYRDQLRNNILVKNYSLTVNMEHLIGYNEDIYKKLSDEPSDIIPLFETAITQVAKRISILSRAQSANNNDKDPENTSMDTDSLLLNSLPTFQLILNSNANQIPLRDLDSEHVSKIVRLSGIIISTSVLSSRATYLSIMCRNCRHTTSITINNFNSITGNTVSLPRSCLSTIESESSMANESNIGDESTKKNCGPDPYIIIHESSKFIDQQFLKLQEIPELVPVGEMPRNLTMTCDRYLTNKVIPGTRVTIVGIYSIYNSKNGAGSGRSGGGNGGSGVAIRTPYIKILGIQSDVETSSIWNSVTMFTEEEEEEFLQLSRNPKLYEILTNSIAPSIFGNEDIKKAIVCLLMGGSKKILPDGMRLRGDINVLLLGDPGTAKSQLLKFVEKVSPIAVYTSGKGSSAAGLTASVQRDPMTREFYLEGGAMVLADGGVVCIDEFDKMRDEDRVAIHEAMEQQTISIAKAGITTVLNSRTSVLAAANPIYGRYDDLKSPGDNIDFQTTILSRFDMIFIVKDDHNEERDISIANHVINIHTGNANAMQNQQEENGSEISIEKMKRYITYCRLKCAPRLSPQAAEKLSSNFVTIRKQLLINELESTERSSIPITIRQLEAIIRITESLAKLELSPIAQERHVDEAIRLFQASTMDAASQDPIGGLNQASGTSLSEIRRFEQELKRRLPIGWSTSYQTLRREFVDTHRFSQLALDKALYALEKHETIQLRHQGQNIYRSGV
MCM2-7-ΔC3, sequence (P53091 whole entry, stated change not applied, chain 5 of 4): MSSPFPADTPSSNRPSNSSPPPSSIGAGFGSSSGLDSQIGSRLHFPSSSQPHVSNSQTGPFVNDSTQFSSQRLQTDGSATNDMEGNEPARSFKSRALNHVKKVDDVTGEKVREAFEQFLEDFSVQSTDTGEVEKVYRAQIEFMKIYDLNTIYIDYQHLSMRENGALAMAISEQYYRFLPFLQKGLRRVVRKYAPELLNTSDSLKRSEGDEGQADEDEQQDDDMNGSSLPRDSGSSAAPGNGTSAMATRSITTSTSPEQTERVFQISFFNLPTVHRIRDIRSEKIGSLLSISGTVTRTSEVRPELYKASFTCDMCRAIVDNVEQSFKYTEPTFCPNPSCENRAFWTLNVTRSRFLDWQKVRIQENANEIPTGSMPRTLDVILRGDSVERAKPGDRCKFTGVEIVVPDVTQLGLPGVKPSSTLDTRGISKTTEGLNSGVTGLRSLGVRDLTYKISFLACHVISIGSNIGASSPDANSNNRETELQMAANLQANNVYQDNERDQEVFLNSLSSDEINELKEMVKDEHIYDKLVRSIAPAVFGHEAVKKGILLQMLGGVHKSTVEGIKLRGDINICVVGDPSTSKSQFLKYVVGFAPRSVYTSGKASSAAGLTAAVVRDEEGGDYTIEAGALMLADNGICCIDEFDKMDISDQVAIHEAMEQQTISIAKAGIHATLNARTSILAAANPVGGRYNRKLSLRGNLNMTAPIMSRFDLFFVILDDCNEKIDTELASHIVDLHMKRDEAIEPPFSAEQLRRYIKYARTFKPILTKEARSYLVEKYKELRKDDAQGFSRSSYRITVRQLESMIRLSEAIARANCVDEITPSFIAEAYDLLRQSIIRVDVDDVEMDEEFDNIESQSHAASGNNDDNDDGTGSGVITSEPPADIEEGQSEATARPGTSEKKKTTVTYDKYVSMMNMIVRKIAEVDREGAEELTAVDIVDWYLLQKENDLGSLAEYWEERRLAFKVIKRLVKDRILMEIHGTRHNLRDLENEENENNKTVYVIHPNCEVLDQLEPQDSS
MCM2-7-ΔC3, sequence (P38132 whole entry, stated change not applied, chain 6 of 4): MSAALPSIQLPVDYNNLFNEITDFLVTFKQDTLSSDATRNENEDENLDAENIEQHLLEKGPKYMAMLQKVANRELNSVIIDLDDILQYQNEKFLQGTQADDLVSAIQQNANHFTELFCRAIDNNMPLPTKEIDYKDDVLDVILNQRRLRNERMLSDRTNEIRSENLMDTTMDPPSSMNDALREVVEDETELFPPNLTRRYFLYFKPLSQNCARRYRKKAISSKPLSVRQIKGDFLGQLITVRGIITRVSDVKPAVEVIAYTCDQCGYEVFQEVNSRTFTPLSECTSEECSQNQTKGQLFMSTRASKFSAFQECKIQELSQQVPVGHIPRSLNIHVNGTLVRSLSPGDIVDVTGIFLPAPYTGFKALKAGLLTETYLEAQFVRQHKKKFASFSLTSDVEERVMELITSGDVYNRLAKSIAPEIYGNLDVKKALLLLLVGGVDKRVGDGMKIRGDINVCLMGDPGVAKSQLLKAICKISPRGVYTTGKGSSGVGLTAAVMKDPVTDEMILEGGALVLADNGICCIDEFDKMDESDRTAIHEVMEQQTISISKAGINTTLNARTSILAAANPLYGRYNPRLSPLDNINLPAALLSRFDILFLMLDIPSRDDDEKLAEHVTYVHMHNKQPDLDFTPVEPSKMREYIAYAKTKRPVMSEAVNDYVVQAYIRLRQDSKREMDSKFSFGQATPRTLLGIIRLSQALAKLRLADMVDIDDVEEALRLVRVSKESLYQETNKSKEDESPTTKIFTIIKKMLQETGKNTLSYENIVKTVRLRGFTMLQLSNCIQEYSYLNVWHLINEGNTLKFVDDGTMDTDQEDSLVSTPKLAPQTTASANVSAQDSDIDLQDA
Mcm3, sequence (P24279 whole entry): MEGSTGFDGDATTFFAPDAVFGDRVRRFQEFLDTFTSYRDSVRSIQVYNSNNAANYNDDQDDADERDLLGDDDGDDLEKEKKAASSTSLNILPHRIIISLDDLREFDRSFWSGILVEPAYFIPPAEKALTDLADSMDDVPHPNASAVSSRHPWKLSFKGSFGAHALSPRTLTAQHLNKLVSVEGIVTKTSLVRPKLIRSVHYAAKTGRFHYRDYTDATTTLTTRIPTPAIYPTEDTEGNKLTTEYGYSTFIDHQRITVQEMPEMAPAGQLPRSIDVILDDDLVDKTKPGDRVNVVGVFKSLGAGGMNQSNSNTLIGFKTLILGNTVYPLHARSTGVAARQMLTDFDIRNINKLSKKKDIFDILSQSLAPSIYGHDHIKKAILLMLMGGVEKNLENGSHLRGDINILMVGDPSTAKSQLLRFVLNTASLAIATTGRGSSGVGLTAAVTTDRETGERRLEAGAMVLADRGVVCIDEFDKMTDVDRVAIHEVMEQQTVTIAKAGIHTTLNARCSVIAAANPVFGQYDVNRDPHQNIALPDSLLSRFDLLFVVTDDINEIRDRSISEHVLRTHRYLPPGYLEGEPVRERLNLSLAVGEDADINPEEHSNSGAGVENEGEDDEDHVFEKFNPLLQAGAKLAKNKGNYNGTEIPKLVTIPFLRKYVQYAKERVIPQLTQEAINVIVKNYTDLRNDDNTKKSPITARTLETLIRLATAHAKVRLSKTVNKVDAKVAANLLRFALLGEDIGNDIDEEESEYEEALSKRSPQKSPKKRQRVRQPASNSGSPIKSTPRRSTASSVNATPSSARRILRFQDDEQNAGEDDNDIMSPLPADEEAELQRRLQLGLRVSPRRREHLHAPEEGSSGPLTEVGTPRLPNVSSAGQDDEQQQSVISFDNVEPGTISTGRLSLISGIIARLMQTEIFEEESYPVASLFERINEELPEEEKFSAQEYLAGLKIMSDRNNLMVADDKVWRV
MCM2-7, sequence (P24279 whole entry, chain 2 of 4): as the sequence (P24279 whole entry) above
MCM2-7, sequence (P29496 whole entry, chain 4 of 4): as the sequence (P29496 whole entry, stated change not applied, chain 4 of 4) above
MCM2-7, sequence (P53091 whole entry, chain 5 of 4): as the sequence (P53091 whole entry, stated change not applied, chain 5 of 4) above
MCM2-7, sequence (P38132 whole entry, chain 6 of 4): as the sequence (P38132 whole entry, stated change not applied, chain 6 of 4) above

binding result [1]: binds
binding result [2]: binds
B1: MBP-Cdc6 (natural protein)
chain: MSAIPITPTKRIRRNLFDDAPATPPRPLKRKKLQFTDVTPESSPEKLQFGSQSIFLRTKALLQKSSELVNLNSSDGALPARTAEYEQVMNFLAKAISEHRSDSLYITGPPGTGKTAQLDMIIRQKFQSLPLSLSTPRSKDVLRHTNPNLQNLSWFELPDGRLESVAVTSINCISLGEPSSIFQKIFDSFQDLNGPTLQIKNMQHLQKFLEPYHKKTTFVVVLDEMDRLLHANTSETQSVRTILELFLLAKLPTVSFVLIGMANSLDMKDRFLSRLNLDRGLLPQTIVFQPYTAEQMYEIVIQKMSSLPTIIFQPMAIKFAAKKCAGNTGDLRKLFDVLRGSIEIYELEKRFLLSPTRGSLNSAQVPLTPTTSPVKKSYPEPQGKIGLNYIAKVFSKFVNNNSTRTRIAKLNIQQKLILCTIIQSLKLNSDATIDESFDHYIKAITKTDTLAPLQRNEFLEICTILETCGLVSIKKTKCKGKTKRFVDKIDVDLDMREFYDEMTKISILKPFLH

binding result [3]: binds
binding result [4]: binds
binding result [5]: binds
B2: Mcm2 (natural protein)
chain: MSDNRRRRREEDDSDSENELPPSSPQQHFRGGMNPVSSPIGSPDMINPEGDDNEVDDVPDIDEVEEQMNEVDLMDDNMYEDYAADHNRDRYDPDQVDDREQQELSLSERRRIDAQLNERDRLLRNVAYIDDEDEEQEGAAQLDEMGLPVQRRRRRRQYEDLENSDDDLLSDMDIDPLREELTLESLSNVKANSYSEWITQPNVSRTIARELKSFLLEYTDETGRSVYGARIRTLGEMNSESLEVNYRHLAESKAILALFLAKCPEEMLKIFDLVAMEATELHYPDYARIHSEIHVRISDFPTIYSLRELRESNLSSLVRVTGVVTRRTGVFPQLKYVKFNCLKCGSILGPFFQDSNEEIRISFCTNCKSKGPFRVNGEKTVYRNYQRVTLQEAPGTVPPGRLPRHREVILLADLVDVSKPGEEVEVTGIYKNNYDGNLNAKNGFPVFATIIEANSIKRREGNTANEGEEGLDVFSWTEEEEREFRKISRDRGIIDKIISSMAPSIYGHRDIKTAVACSLFGGVPKNVNGKHSIRGDINVLLLGDPGTAKSQILKYVEKTAHRAVFATGQGASAVGLTASVRKDPITKEWTLEGGALVLADKGVCLIDEFDKMNDQDRTSIHEAMEQQSISISKAGIVTTLQARCSIIAAANPNGGRYNSTLPLAQNVSLTEPILSRFDILCVVRDLVDEEADERLATFVVDSHVRSHPENDEDREGEELKNNGESAIEQGEDEINEQLNARQRRLQRQRKKEEEISPIPQELLMKYIHYARTKIYPKLHQMDMDKVSRVYADLRRESISTGSFPITVRHLESILRIAESFAKMRLSEFVSSYDLDRAIKVVVDSFVDAQKVSVRRQLRRSFAIYTLGH
